The record followed here is patent US8877192B2, “Rage fusion proteins and methods of use” (TransTech Pharma, LLC, priority 2004, dated 2014).

The series can be described thus: Pharmacokinetic profile of TTP-4000 after IV injection, plasma ELISA. It is filed as in vivo, monkeys. The note with it: single IV bolus 5 mg/kg, 2 animals, FIG. 11. Here is the method: Following collection, the tubes were placed on wet ice (maximum 30 minutes) until centrifugation under refrigeration (at 2 to 8° C.) at 1500×g for 15 minutes. Each harvested plasma sample was then stored frozen (−70° C.±10° C.) until assayed for RAGE polypeptide using an ELISA at various time-points following the injection, as described in Example 6.
Initially, 50 uL of the RAGE specific monoclonal antibody 1HB1011 at a concentration of 10 ug/mL in 1×PBS pH 7.3 is coated on plates via overnight incubation. When ready for use, plates are washed three times with 300 uL of 1× Imidazole-Tween wash buffer and blocked with 1% BSA. […] The samples are allowed to incubate at room temperature for one hour. After incubation, the plates are plates are washed three times. A Goat Anti-human IgG1 1 (Sigma A3312) AP conjugate in 1×PBS with 1% BSA is added and allowed to incubate at room temperature for 1 hour. The plates are washed three times. Color was elucidated with paranitrophenylphosphate.

B1: TTP-4000: four domain RAGE fusion protein (SEQ ID NO: 32): human RAGE amino acids 1-251 linked to CH2 and CH3 domains of human IgG (protein)
chain: MAAGTAVGAWALVLSLWGAVVGAQNITARIGEPLVLKCKGAPKKPPQRLEWKLNTGRTEAWKVLSPQGGGPWDSVARVLPNGSLFLPAVGIQDEGIFRCQAMNRNGKETKSNYRVRVYQIPGKPEIVDSASELTAGVPNKVGTCVSEGSYPAGTLSWHLDGKPLVPNEKGVSVKEQTRRHPETGLFTLQSELMVTPARGGDPRPTFSCSFSPGLPRHRALRTAPIQPRVWEPVPLEEVQLVVEPEGGAVAPPSVFLFPPKPKDTLMISRTPEVTCVVVDVSHEDPEVKFNWYVDGVEVHNAKTKPREEQYNSTYRVVSVLTVLHQDWLNGKEYKCKVSNKALPAPIEKTISKAKGQPREPQVYTLPPSRDELTKNQVSLTCLVKGFYPSDIAVEWESNGQPENNYKTTPPVLDSDGSFFLYSKLTVDKSRWQQGNVFSCSVMHEALHNHYTQKSLSLSPGK
Take B1: the terminal half-life entry was “greater than 300 hours”.
